In PMC6973334 one finds stoichiometry N (LINGO-1 per mAb) and reduction of the concatemer peaks data, which are given here for 3 substances.

Where “and” joins values, the source holds several entries; their conditions need not be identical. Equal entries are not always repeated. Where two headings read alike, the source gives them in different places.

In assay [1] the target is LINGO-1 ectodomain (free ectodomain made from LINGO-1-Fc by limited proteolysis with chymotrypsin) (Homo sapiens). In words: SEC-MALS. (In general: SEC sorts molecules by how far they enter the pores of the column.)
Chain of LINGO-1 ectodomain (free ectodomain made from LINGO-1-Fc by limited proteolysis with chymotrypsin) (Homo sapiens) (Q96FE5 42-561): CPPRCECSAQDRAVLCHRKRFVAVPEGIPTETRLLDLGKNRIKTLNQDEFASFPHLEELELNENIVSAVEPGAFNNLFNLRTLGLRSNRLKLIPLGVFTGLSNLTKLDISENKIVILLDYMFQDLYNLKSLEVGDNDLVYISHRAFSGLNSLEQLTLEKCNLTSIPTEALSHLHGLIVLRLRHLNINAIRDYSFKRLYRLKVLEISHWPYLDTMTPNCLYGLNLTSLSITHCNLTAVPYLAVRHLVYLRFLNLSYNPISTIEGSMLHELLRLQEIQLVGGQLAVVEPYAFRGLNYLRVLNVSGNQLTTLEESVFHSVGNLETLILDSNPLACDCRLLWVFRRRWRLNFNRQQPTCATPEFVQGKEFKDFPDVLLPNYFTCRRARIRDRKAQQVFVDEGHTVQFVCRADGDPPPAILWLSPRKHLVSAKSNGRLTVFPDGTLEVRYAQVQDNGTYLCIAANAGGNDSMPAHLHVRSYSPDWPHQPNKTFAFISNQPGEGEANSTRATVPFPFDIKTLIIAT
For assay [2] the target is unchanged. In words: SEC-MALS. The source holds these as a separate data set.
For assay [3] the target is unchanged. The assay is described as follows: SEC.

For the substance Li81 R18S/S31R/R54T mAb (antibody), the stoichiometry N (LINGO-1 per mAb) was 2 in assay [1]; 2 and 1 in assay [2].

In turn, Li81 R18S/R54T mAb (antibody) gave a reduction of the concatemer peaks in assay [3] of 50%.

Li81 R18S/S31R mAb (antibody) displayed a reduction of the concatemer peaks in assay [3] of 25%.
